This passage reports reduction of binding compared to Alp7 results from article PMC4294777.

This assay deals with Klp5-3FLAG (fission yeast) (UniProt O14343). As to the kind of experiment: co-IP; protein extracts (4 mg or 8 mg) of metaphase-arrested cut9-665 cells (36°C, 2.5 hours) added to protein A Dynabeads coated with anti-Flag antibodies; blotted with anti-Flag and anti-Myc.
Chain of UniProt O14343 (O14343 whole entry): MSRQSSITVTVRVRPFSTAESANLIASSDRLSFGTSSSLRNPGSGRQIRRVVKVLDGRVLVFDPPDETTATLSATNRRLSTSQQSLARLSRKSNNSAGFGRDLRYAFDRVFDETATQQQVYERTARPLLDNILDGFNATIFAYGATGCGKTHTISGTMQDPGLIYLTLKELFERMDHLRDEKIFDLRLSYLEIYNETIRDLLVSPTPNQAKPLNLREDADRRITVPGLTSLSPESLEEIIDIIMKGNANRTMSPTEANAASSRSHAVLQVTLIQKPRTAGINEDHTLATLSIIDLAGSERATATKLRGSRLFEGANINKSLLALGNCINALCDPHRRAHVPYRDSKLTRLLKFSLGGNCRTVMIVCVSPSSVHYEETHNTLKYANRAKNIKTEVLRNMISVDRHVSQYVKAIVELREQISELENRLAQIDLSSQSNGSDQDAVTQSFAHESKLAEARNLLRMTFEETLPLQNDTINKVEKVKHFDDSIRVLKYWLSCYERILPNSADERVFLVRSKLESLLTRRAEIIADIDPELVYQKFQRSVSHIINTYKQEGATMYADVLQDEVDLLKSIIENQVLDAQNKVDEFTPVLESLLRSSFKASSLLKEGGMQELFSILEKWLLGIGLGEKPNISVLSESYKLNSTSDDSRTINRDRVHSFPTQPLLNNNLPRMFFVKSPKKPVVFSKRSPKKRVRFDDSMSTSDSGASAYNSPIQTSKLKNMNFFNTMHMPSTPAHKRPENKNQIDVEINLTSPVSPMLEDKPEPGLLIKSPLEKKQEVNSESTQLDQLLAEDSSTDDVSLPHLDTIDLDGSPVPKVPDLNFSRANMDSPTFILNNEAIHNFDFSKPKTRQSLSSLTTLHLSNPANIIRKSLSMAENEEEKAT

“Alp7-LA6-Myc (from UniProt Q9URY2 1-474) (natural protein)”: the reduction of binding compared to Alp7 was > 70%.
